From US20130045539

System: hsRAG1 engineered meganuclease (I-CreI-derived) (artificial (I-CreI backbone, Chlamydomonas reinhardtii?))
Experiment: cell_activity
Settings: HEK-293, meganuclease-driven targeted integration at RAG1; other lines 7-16%; indirect readout of cleavage

## human RAG1 locus meganuclease target site
  activity (% targeted clones): 44
